From PMC6797804 (2019) come the findings set out here.

The target of assay [1] is MORF DPF domain (residues 211–322) F287A (human, UniProt Q8WYB5 211-322, F287A). Nature of the assay: NMR.
For assay [2], the target named is T1, MORF DPF domain (residues 211–322) F218A (human, UniProt Q8WYB5 211-322, F218A).
T1 sequence: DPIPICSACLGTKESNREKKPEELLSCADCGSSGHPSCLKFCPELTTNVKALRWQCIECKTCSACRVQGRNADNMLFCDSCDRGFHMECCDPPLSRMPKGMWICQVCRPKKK

Assay [3] deals with T2, MORF DPF domain (residues 211–322), wild type (human, UniProt Q8WYB5 211-322).
T2 chain: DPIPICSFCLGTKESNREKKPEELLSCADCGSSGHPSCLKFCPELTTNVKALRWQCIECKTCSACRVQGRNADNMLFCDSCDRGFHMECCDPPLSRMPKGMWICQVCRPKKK

In assay [4] the target is T3, MORF DPF domain (residues 211–322) F287A/R306E/K309E (human, UniProt Q8WYB5 211-322, F287A | R306E | K309E).
T3 sequence: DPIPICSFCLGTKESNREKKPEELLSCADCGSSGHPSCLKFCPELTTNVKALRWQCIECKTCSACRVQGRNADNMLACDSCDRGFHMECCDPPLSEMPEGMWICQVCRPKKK
Nature of the assay: NMR.

Ends that are not written are not given here. * marks the point of attachment. Crotonyl(E) = C/C=C/C(=O)*

Chain of MORF DPF domain (residues 211–322) F287A (Q8WYB5 211-322 F287A): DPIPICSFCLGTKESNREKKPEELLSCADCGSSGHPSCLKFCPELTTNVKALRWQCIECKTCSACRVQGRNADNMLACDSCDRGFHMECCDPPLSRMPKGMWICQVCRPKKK

For ARTKQTARKSTGGKAPRKQ [unmodified histone H3 peptide (residues 1–19 of H3)], the equilibrium dissociation constant (Kd) in assay [1] worked out at 8000 µM; in assay [2] it was 3.3 µM; in assay [3] it was 3.6 µM.
As for ARTKQTARKSTGGK(Crotonyl(E))APRKQ [histone H3K14cr peptide (residues 1–19 of H3)], binding in assay [4] was characterised by a dissociation constant (Kd) of 285 µM.
